Measured values as given in patent US11370837 (dated 2022).

T1: human TIGIT on CHO cells (human, UniProt Q495A1)
T1 chain: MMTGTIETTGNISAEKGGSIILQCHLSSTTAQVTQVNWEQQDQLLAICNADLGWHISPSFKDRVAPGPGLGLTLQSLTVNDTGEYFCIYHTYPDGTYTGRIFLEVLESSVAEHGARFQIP

T2: human TIGIT-Fc (human, UniProt Q495A1)
T2 chain: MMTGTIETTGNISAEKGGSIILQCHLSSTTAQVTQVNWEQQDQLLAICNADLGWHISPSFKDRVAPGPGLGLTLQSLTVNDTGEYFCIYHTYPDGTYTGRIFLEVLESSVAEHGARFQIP


Target: T1, human TIGIT on CHO cells
Assay: competition, CD155 blocking FACS

IC50 [nM] | Binder
0.281 | ADI-30302 (antibody, V domains shown) VH: QLQLQESGPGLVKPSETLSLTCTVSGGSIGSSQYYWGWIRQPPGKGLEWIGSIYRSGGTYYNPSLKSRVTISVDTSKNQFSLKLSSVTAADTAVYYCARDGLYHTPEYFQHWGQGTLVTVSS VL: EIVLTQSPATLSLSPGERATLSCRASQSVSSYLAWYQQKPGQAPRLLIYDASNRATGIPARFSGSGSGTDFTLTISSLEPEDFAVYYCQQRFAFPYTFGGGTKVEIK
0.819 | ADI-27243 (antibody, V domains shown) VH: QLQLQESGPGLVKPSETLSLTCTVSGGSISSSRYYWGWIRQPPGKGLEWIGSIYYSGSTYYNPSLKSRVTISVDTSKNQFSLKLSSVTAADTAVYYCARDGLYHTPEYFQHWGQGTLVTVSS VL: EIVLTQSPATLSLSPGERATLSCRASQSVSSYLAWYQQKPGQAPRLLIYDASNRATGIPARFSGSGSGTDFTLTISSLEPEDFAVYYCQQRFAFPYTFGGGTKVEIK
0.586 | ADI-27278 (antibody, V domains shown) VH: EVQLVESGGGLVQPGGSLRLSCAASGFTFSSYSMNWVRQAPGKGLEWVSYISGSSSTIYYADSVKGRFTISRDNAKNSLYLQMNSLRAEDTAVYYCARHRIADSPSRAFDIWGQGTMVTVSS VL: not shown
0.278 | ADI-30267 (antibody, V domains shown) VH: QVQLVQSGAEVKKPGASVKVSCKASGYTFRSYYMSWVRQAPGQGLEWMGIIDPSGGRTSFAQKFQGRVTMTRDTSTSTVYMELSSLRSEDTAVYYCARARYPESWPYGMDVWGQGTTVTVSS VL: DIQMTQSPSSLSASVGDRVTITCRASQSINSYLNWYQQKPGKAPKLLIYAASSLQSGVPSRFSGSGSGTDFTLTISSLQPEDFATYYCQQSLLTPFTFGGGTKVEIK

Target: T1, human TIGIT on CHO cells
Assay: FACS

EC50 [nM] | Binder
0.326 | ADI-30302 (antibody, V domains shown) VH: QLQLQESGPGLVKPSETLSLTCTVSGGSIGSSQYYWGWIRQPPGKGLEWIGSIYRSGGTYYNPSLKSRVTISVDTSKNQFSLKLSSVTAADTAVYYCARDGLYHTPEYFQHWGQGTLVTVSS VL: EIVLTQSPATLSLSPGERATLSCRASQSVSSYLAWYQQKPGQAPRLLIYDASNRATGIPARFSGSGSGTDFTLTISSLEPEDFAVYYCQQRFAFPYTFGGGTKVEIK
0.587 | ADI-27243 (antibody, V domains shown) VH: QLQLQESGPGLVKPSETLSLTCTVSGGSISSSRYYWGWIRQPPGKGLEWIGSIYYSGSTYYNPSLKSRVTISVDTSKNQFSLKLSSVTAADTAVYYCARDGLYHTPEYFQHWGQGTLVTVSS VL: EIVLTQSPATLSLSPGERATLSCRASQSVSSYLAWYQQKPGQAPRLLIYDASNRATGIPARFSGSGSGTDFTLTISSLEPEDFAVYYCQQRFAFPYTFGGGTKVEIK
0.968 | ADI-27278 (antibody, V domains shown) VH: EVQLVESGGGLVQPGGSLRLSCAASGFTFSSYSMNWVRQAPGKGLEWVSYISGSSSTIYYADSVKGRFTISRDNAKNSLYLQMNSLRAEDTAVYYCARHRIADSPSRAFDIWGQGTMVTVSS VL: not shown
0.74 | ADI-30267 (antibody, V domains shown) VH: QVQLVQSGAEVKKPGASVKVSCKASGYTFRSYYMSWVRQAPGQGLEWMGIIDPSGGRTSFAQKFQGRVTMTRDTSTSTVYMELSSLRSEDTAVYYCARARYPESWPYGMDVWGQGTTVTVSS VL: DIQMTQSPSSLSASVGDRVTITCRASQSINSYLNWYQQKPGKAPKLLIYAASSLQSGVPSRFSGSGSGTDFTLTISSLQPEDFATYYCQQSLLTPFTFGGGTKVEIK

Target: T2, human TIGIT-Fc
Assay: BLI

Kd [nM] | Binder
0.566 | ADI-30336 Fab (antibody, V domains shown) VH: QLQLQESGPGLVKPSETLSLTCTVSGGSISSSRYYWGWIRQPPGKGLEWIGSIYYSGSTYYNPSLKSRVTISVDTSKNQFSLKLSSVTAADTAVYYCARDGLYHTPEYFQHWGQGTLVTVSS VL: EIVLTQSPATLSLSPGERATLSCRASQSVSSYLAWYQQKPGQAPRLLIYDASNRATGIPARFSGSGSGTDFTLTISSLEPEDFAVYYCQQRFAHPYTFGGGTKVEIK
0.329 | ADI-30302 Fab (antibody, V domains shown) VH: QLQLQESGPGLVKPSETLSLTCTVSGGSIGSSQYYWGWIRQPPGKGLEWIGSIYRSGGTYYNPSLKSRVTISVDTSKNQFSLKLSSVTAADTAVYYCARDGLYHTPEYFQHWGQGTLVTVSS VL: EIVLTQSPATLSLSPGERATLSCRASQSVSSYLAWYQQKPGQAPRLLIYDASNRATGIPARFSGSGSGTDFTLTISSLEPEDFAVYYCQQRFAFPYTFGGGTKVEIK
9.47 | ADI-27243 Fab (antibody, V domains shown) VH: QLQLQESGPGLVKPSETLSLTCTVSGGSISSSRYYWGWIRQPPGKGLEWIGSIYYSGSTYYNPSLKSRVTISVDTSKNQFSLKLSSVTAADTAVYYCARDGLYHTPEYFQHWGQGTLVTVSS VL: EIVLTQSPATLSLSPGERATLSCRASQSVSSYLAWYQQKPGQAPRLLIYDASNRATGIPARFSGSGSGTDFTLTISSLEPEDFAVYYCQQRFAFPYTFGGGTKVEIK
8.01 | ADI-27301 Fab (antibody, V domains shown) VH: QLQLQESGPGLVKPSETLSLTCTVSGGSISSSSYYWGWIRQPPGKGLEWIGSIYYSGSTYYNPSLKSRVTISVDTSKNQFSLKLSSVTAADTAVYYCAREAGRGTTGLLFDYWGQGTLVTVSS VL: DIQMTQSPSTLSASVGDRVTITCRASQSISSWLAWYQQKPGKAPKLLIYKASSLESGVPSRFSGSGSGTEFTLTISSLQPDDFATYYCQQYGILPRTFGGGTKVEIK
0.807 | ADI-30311 Fab (antibody, V domains shown) VH: QLQLQESGPGLVKPSETLSLTCTVSGGSIASSVYYWGWIRQPPGKGLEWIGSIYYSGSTWYNPSLKSRVTISVDTSKNQFSLKLSSVTAADTAVYYCAREAGRTGTGLLFDYWGQGTLVTVSS VL: DIQMTQSPSTLSASVGDRVTITCRASQSISSWLAWYQQKPGKAPKLLIYKASSLESGVPSRFSGSGSGTEFTLTISSLQPDDFATYYCQQYGILPRTFGGGTKVEIK
10.9 | ADI-27278 Fab (antibody, V domains shown) VH: EVQLVESGGGLVQPGGSLRLSCAASGFTFSSYSMNWVRQAPGKGLEWVSYISGSSSTIYYADSVKGRFTISRDNAKNSLYLQMNSLRAEDTAVYYCARHRIADSPSRAFDIWGQGTMVTVSS VL: not shown
3.49 | ADI-30293 Fab (antibody, V domains shown) VH: EVQLVESGGGLVQPGGSLRLSCAASGFTFSSYSMNWVRQAPGKGLEWVSYISSSGTINYADSVKGRFTISRDNAKNSLYLQMNSLRAEDTAVYYCARHRIADSPSRAFDIWGQGTMVTVSS VL: not shown
2.43 | ADI-30296 Fab (antibody, V domains shown) VH: EVQLVESGGGLVQPGGSLRLSCAASGFTIGGYSMNWVRQAPGKGLEWVSYISSSSTIHYADSVKGRFTISRDNAKNSLYLQMNSLRAEDTAVYYCARHRIGRSPSRAFDIWGQGTMVTVSS VL: not shown
0.571 | ADI-30268 Fab (antibody, V domains shown) VH: QVQLVQSGAEVKKPGASVKVSCKASGYTFGSYYMGWVRQAPGQGLEWMGIIDPSGGRTSYARKFQGRVTMTRDTSTSTVYMELSSLRSEDTAVYYCARARTPSSWPYGMDVWGQGTTVTVSS VL: DIQMTQSPSSLSASVGDRVTITCRASQSINSYLNWYQQKPGKAPKLLIYAASSLQSGVPSRFSGSGSGTDFTLTISSLQPEDFATYYCQQSLLTPFTFGGGTKVEIK
13.8 | ADI-27238 Fab (antibody, V domains shown) VH: QVQLVQSGAEVKKPGASVKVSCKASGYTFTSYYMSWVRQAPGQGLEWMGIINPSGGSTSYAQKFQGRVTMTRDTSTSTVYMELSSLRSEDTAVYYCARARYPSSWPYGMDVWGQGTTVTVSS VL: DIQMTQSPSSLSASVGDRVTITCRASQSINSYLNWYQQKPGKAPKLLIYAASSLQSGVPSRFSGSGSGTDFTLTISSLQPEDFATYYCQQSLLTPFTFGGGTKVEIK
1.66 | ADI-30267 Fab (antibody, V domains shown) VH: QVQLVQSGAEVKKPGASVKVSCKASGYTFRSYYMSWVRQAPGQGLEWMGIIDPSGGRTSFAQKFQGRVTMTRDTSTSTVYMELSSLRSEDTAVYYCARARYPESWPYGMDVWGQGTTVTVSS VL: DIQMTQSPSSLSASVGDRVTITCRASQSINSYLNWYQQKPGKAPKLLIYAASSLQSGVPSRFSGSGSGTDFTLTISSLQPEDFATYYCQQSLLTPFTFGGGTKVEIK
0.795 | ADI-30263 Fab (antibody, V domains shown) VH: QVQLVQSGAEVKKPGASVKVSCKASGYTFLSYYMNWVRQAPGQGLEWMGIIDPSGGRTSYAQKFQGRVTMTRDTSTSTVYMELSSLRSEDTAVYYCARARYPSSWPYGTDVWGQGTTVTVSS VL: DIQMTQSPSSLSASVGDRVTITCRASQSINSYLNWYQQKPGKAPKLLIYAASSLQSGVPSRFSGSGSGTDFTLTISSLQPEDFATYYCQQSLLTPFTFGGGTKVEIK
0.436 | ADI-30286 Fab (antibody, V domains shown) VH: EVQLLESGGGLVQPGGSLRLSCAASGFTFGPYGMSWVRQAPGKGLEWVSAISGSGASTWYADSVKGRFTISRDNSKNTLYLQMNSLRAEDTAVYYCAKDPGTHYSGYYYIWRYWGQGTLVTVSS VL: EIVMTQSPATLSVSPGERATLSCRASQSVSSNLAWYQQKPGQAPRLLIYSASTRATGIPARFSGSGSGTEFTLTISSLQSEDFAVYYCQQYVPHPPFTFGGGTKVEIK
0.547 | ADI-30288 Fab (antibody, V domains shown) VH: EVQLLESGGGLVQPGGSLRLSCAASGFTFGPYGMSWVRQAPGKGLEWVSAISGSGASTWHADSVKGRFTISRDNSKNTLYLQMNSLRAEDTAVYYCAKDPGTDSTGYYYIWRYWGQGTLVTVSS VL: EIVMTQSPATLSVSPGERATLSCRASQSVSSNLAWYQQKPGQAPRLLIYSASTRATGIPARFSGSGSGTEFTLTISSLQSEDFAVYYCQQYVPHPPFTFGGGTKVEIK
0.553 | ADI-30283 Fab (antibody, V domains shown) VH: EVQLLESGGGLVQPGGSLRLSCAASGFTFSPYGMSWVRQAPGKGLEWVSSISGSGGRTYYADSVKGRFTISRDNSKNTLYLQMNSLRAEDTAVYYCAKDPGTDSSGYYYIWRYWGQGTLVTVSS VL: EIVMTQSPATLSVSPGERATLSCRASQSVSSNLAWYQQKPGQAPRLLIYSASTRATGIPARFSGSGSGTEFTLTISSLQSEDFAVYYCQQYVPHPPFTFGGGTKVEIK
6.48 | ADI-27291 Fab (antibody, V domains shown) VH: not shown VL: EIVMTQSPATLSVSPGERATLSCRASQSVSSNLAWYQQKPGQAPRLLIYSASTRATGIPARFSGSGSGTEFTLTISSLQSEDFAVYYCQQYVPHPPFTFGGGTKVEIK
1.19 | ADI-30272 Fab (antibody, V domains shown) VH: QVQLVQSGAEVKKPGASVKVSCKASGYTFTEYYMHWVRQAPGQGLEWMGIISPSAGSTSYAQKFQGRVTMTRDTSTSTVYMELSSLRSEDTAVYYCARDHDIAAAGRLADYWGQGTLVTVSS VL: DIQMTQSPSSVSASVGDRVTITCRASQGISSWLAWYQQKPGKAPKLLISAASSLQSGVPSRFSGSGSGTDFTLTISSLQPEDFATYYCQQAVILPITFGGGTKVEIK
32.1 | ADI-27297 Fab (antibody, V domains shown) VH: QVQLVQSGAEVKKPGASVKVSCKASGYTFTSYYMHWVRQAPGQGLEWMGIINPSGGSTSYAQKFQGRVTMTRDTSTSTVYMELSSLRSEDTAVYYCARDHDIAAAGRLADYWGQGTLVTVSS VL: DIQMTQSPSSVSASVGDRVTITCRASQGISSWLAWYQQKPGKAPKLLISAASSLQSGVPSRFSGSGSGTDFTLTISSLQPEDFATYYCQQAVILPITFGGGTKVEIK
0.243 | ADI-30278 Fab (antibody, V domains shown) VH: QVQLVQSGAEVKKPGASVKVSCKASGYTFTEYYMHWVRQAPGQGLEWMGIISPSAGSTKYAQKFQGRVTMTRDTSTSTVYMELSSLRSEDTAVYYCARDHDIRLAGRLADYWGQGTLVTVSS VL: DIQMTQSPSSVSASVGDRVTITCRASQGISSWLAWYQQKPGKAPKLLISAASSLQSGVPSRFSGSGSGTDFTLTISSLQPEDFATYYCQQAVILPITFGGGTKVEIK
